{"source": "the nanobody polyreactivity screen of Harvey et al. (2022)"}
{"assay": "yeast display, Sf9 membrane polyspecificity reagent, FACS + sequencing; frameworks hold sequencing errors", "outline": "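Polyreactivity labels are assigned by the sorting gate from which each nanobody was recovered. The gates were low and high (top ~1%), set on anti-HA fluorescence for expression and streptavidin fluorescence for reagent binding. Before sorting, galactose-induced (36–48 hours) yeast display cells were stained for 1 hour at 4 °C with 10% biotinylated, detergent-solubilized Sf9 membrane reagent.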"}
{"sequence": "QVQLGESGGGLVQAGGSLRLSCAASGSTFPRNAMGWYRQATGKERELVATITSSGGGTYYADSVKGRFTISRDNAKITVYLQMNSLKPEHTAVYYCNADGPAGDAFDYWGQGTQVTVSS", "polyreactivity (PSR sort gate)": "low polyreactivity"}
{"sequence": "QVQLGESGGGLVQAGGSLRLSCAASGSTLRNNAMGWYRQAPGKERELVASIRTRGGSTRYADSVKGRFTISRDNAKNTVYLQMNSLKPEDTAVYYCAAQYYGKGWQLDYWGQGSQVTVSS", "polyreactivity (PSR sort gate)": "high polyreactivity"}
{"sequence": "QVQLGESGGGLVQAGGSLRLSCAPSGNNFVGNAMGWCRQAAGKERELVAAIRRSGGTTYYADSVKGRFTISRDNAKNTVYLQMNSLKPEDTAVYYCAASRPYQGDYWGQGTQVTVSS", "polyreactivity (PSR sort gate)": "low polyreactivity"}
{"sequence": "QVQLGESGGGLVQAGGSLRLTCAASGGTFKGYAMGWYRQAPGKERELVAAISWSGVRTYYADSVKGRFTISRDNAKNTVYLQMNSLKPEDTAVYYCAASWLLRMGYWGQGTQVTVSS", "polyreactivity (PSR sort gate)": "high polyreactivity"}
{"sequence": "QVQLGESGGGLVQAGGSLSLSCAASGITLHNYAMGWYRQAPGKERELVAAISRRGGNTYYADSVKGRFTISRDNAKNTVYLQMNSLIPEDTAVSYCAAYYHGRMDYWGQGTQVTVSS", "polyreactivity (PSR sort gate)": "high polyreactivity"}
{"sequence": "QVQLGESGGGLVQEGGSLRLSCAASGRILSRYAKGWYRQAPGKERELVAAISRSGGSTYYADSVKGRFTISRDNAKNTVYLQMNSLKPEDTAVYYWARDVSLSTGYDYWGQGTQVTVSS", "polyreactivity (PSR sort gate)": "high polyreactivity"}
{"sequence": "QVQLGESVVCLDQAGVSLPLSCAASGFTFKYYTMRWFRQAPGKERELVAAISRRGGSTYYADSVKGRFTISRDNAKNTVYLQMKSLKPEDTAVYYCAADYRYVSTPYGYDYWGQGTQVTVSS", "polyreactivity (PSR sort gate)": "high polyreactivity"}
{"sequence": "QVQLGETRGGLVQAGGSLRLSCAASASIFAPYAMGGYRQAPGKERELVAAITWSGDSTYYADSVKGRFTISRDNAKYTVYLQMNSLKPEDTAVYYCATEEVYGQGNYWGQGTQVTVSS", "polyreactivity (PSR sort gate)": "low polyreactivity"}
{"sequence": "QVQLHESGGGLLQAGGGLRLSCAASGSISSTGFMCWYRQAPGKEREPVAAIAPGTTTYYADSVKGRFTISRDNAKNSVYLQKNSLRPEDTAVYYCAVFTDNRVAFLYWGQGTQVTVSS", "polyreactivity (PSR sort gate)": "low polyreactivity"}
{"sequence": "QVQLHESGGGLVQAGGSLRLSCAASGTISVTYNMGWYRQAPGKEREFVAGNSTGATTNYADSVKGRFTISRDNAKKTVYLQMNSLKPEDTAVYYCAAHIYRQDHFYYWGQGTQVTVSS", "polyreactivity (PSR sort gate)": "low polyreactivity"}
{"sequence": "QVQLHESGGGLVQAGGSLRQSCAASGTISYAGPMGWYRKAPGKEREFVAGIGVGSNTNYADSVKGRYTIIRDNAKNTVYLQMNSLKPEDTAVNYCAVGGYAPLGRPYWGLGTQVTVSS", "polyreactivity (PSR sort gate)": "low polyreactivity"}
{"sequence": "QVQLHESGGGLVQPGGGLRLSCAPSGSISSTGFMGWNRKAPGKEREPVAAIAPGTTTYYADSVKGRFTISRDNAKNTVYLQMNSLRPEDTAVYYCAVFTDNRVAFLYWGQGTQVTVSS", "polyreactivity (PSR sort gate)": "low polyreactivity"}
{"sequence": "QVQLHESGGVQAGGSLRLSCAASGYISRSDVMGWYRQAPGKERELVATINNGTITYYADSVKGRFTISRDNAKNTVYLQMNSLKPEDTAVHYCAVVQSDTDSLYYWGQGTQVTVSS", "polyreactivity (PSR sort gate)": "low polyreactivity"}
{"sequence": "QVQLHESGVGLVQAGGSLRLSCASSGTISYAGPMGWYRQAPGKEREFVAGIGVGSNTNYADSVKGRYTIIRDNAKNTVYLQMNSLKPEDTAVYYCAVGGYAPLGRPYWGQGTQVTVSS", "polyreactivity (PSR sort gate)": "low polyreactivity"}
{"sequence": "QVQLHESVGRLVQEGGGLRVSCAASGSISSTGFMGWSRQAPGKEGEPVAAIAPGTTTYYADSVKGRFTISRDNAKNTVYLQMNCLRPEDTAVYYCAVYTDNRVAFLYWGQGTQVTVSS", "polyreactivity (PSR sort gate)": "low polyreactivity"}
{"sequence": "QVQLIESGGGLVQAGGSLRLSCAASGIIFYDYAMGWYRQAPGKERELVATITSGGSTNYADSVKGRFTISRDNAKNTVYLQMNSLKPEDTAVYYCAAGRGLILGGVYGYDYWGQGTQVTVSS", "polyreactivity (PSR sort gate)": "low polyreactivity"}
{"sequence": "QVQLIESGGGLVQAGGSLRLSCAASGYTFGAYAMGWYRQAPGKERELVAGITFIGGSTYYADSVKGRFTISRDNAKNTVYLQMNSLKPEDTAVYYCAAPIAFGYRGTVAKYGYWGQGTQVTVSS", "polyreactivity (PSR sort gate)": "low polyreactivity"}
{"sequence": "QVQLLDSGGGLVQAGGSLRLSCAASGRTIYYYAMGWYRQAPGKEREFVAAIYWHGGSTYYAESVKGRFTISRDNAKNTVYFQMNSLKPEDTAVYYCAAERYDRVGFDYWGQGTQVTVSS", "polyreactivity (PSR sort gate)": "low polyreactivity"}
{"sequence": "QVQLLESGAGLVQAGGSLRLSCADSGTFYGYAMGWYRQAPGKERELVAAITWSGGSTYYADSVKGRFTISRDNSKNTVYLQMISLKPEDTAVYYCAASLYSGYDSWGQGTQVTVSS", "polyreactivity (PSR sort gate)": "low polyreactivity"}
{"sequence": "QVQLLESGGGIVQAGGSLRLSCAASGRIFVPYAMGWYRQAPGKERELVAAISGRGDSTYYADSVKGRFTISRDNAKNSVYLQMNSLKPEDTAVYYCAKYRPYYTPSYWSRYDYWGQGTQVSVSS", "polyreactivity (PSR sort gate)": "high polyreactivity"}
{"sequence": "QVQLLESGGGIVQAGGSLRLSCAASGSTYVIYDMVWYRQAPGKERELVAVITIIGGSTYYADSVKGRFTISRDNAKNTVYLQMISLKPEDTAVYYCNANVIQDYPNYDYWGQGTLVTVSS", "polyreactivity (PSR sort gate)": "low polyreactivity"}
{"sequence": "QVQLLESGGGLDQAGGSLRLSSAASGRTFGRNAMGWYRQAPGERELVAVISRGGSTYYADSVKGRFTISRDNAKNTVYLQMNSLKPEDTAVYYCNADTVYTRTAPYDYWGQGTQVTVSS", "polyreactivity (PSR sort gate)": "low polyreactivity"}
{"sequence": "QVQLLESGGGLFQAGGSLRLSCAASGLTFYRYAMGWYRKAPGKERELVAAISFSGGSTYYADSVKGRFTISRDNAKNTVYLQMNSLKPEDTAVYYCAASSYPYGYDYWGQGTQVTVSS", "polyreactivity (PSR sort gate)": "high polyreactivity"}
{"sequence": "QVQLLESGGGLVKAGGSLRLSCAASGFTFYRYAMGWYRQAPGKERELVATINYSGGGTYYADSVKGRFTISRDNAKHTVYLQMNSLKPEDTAVYDCAAEDFDYAVLYDYWGQGTQVTVSS", "polyreactivity (PSR sort gate)": "high polyreactivity"}
{"sequence": "QVQLLESGGGLVPAGGSLRLSWAASGSTLYDYTMGWYRQAPGKERELVAAIRVSGARTFYADSVKGRFTISRDNAKNTVYLQRNSLKPEDTAVYYCAARWYIANPLSPSDYWGQGTQVTVSS", "polyreactivity (PSR sort gate)": "low polyreactivity"}
{"sequence": "QVQLLESGGGLVQAGGILRLSCSASGITFSVYDMGCYRQAPGKERELVASISSGGTSTYYADSVKGRFTISRDNAKNTVYFQMNSLKPEDTAVYYGAAYSYFNGDQYSYDYLGQGTQVTVSS", "polyreactivity (PSR sort gate)": "low polyreactivity"}
{"sequence": "QVQLLESGGGLVQAGGSIRLTCAASGRIFYGNTMGWYRQAPGQETELVAAITIGDSTNYADSVKGRFTISRDNAKYTVYLQMNSLKPEDTAVFYCGKRNWWGYYKYDYWGQGSQVTVSS", "polyreactivity (PSR sort gate)": "low polyreactivity"}
{"sequence": "QVQLLESGGGLVQAGGSLRLSCAASGFIFAKNAMGWYRKAPGKERELVAAISASGGRTYYADSVKGRFTISRDNAKNTVYLQMNSLKPEDTAVYYCAARRDGRSGSYNYWGQGTQVTVSS", "polyreactivity (PSR sort gate)": "high polyreactivity"}
{"sequence": "QVQLLESGGGLVQAGGSLRLSCAASGFIFDIYAMGWYRQAPGKERELVASINWSGGDSTSYADSVKGRFTISRDNAKNTVFLQMYSLKPEDTAVYFCNAEYWSYSGGYPDEYDYWGLGTQVTVSS", "polyreactivity (PSR sort gate)": "low polyreactivity"}
{"sequence": "QVQLLESGGGLVQAGGSLRLSCAASGFTFLSNVMGRYRQAPGKERELVAGINFSGDGTYYADSVKGRFTISRDNAKNTVYLQMNSLKPEDTAVYYCAGDVEYYRDVPQQVYVSDDYWGQGTQVTVSS", "polyreactivity (PSR sort gate)": "low polyreactivity"}
{"sequence": "QVQLLESGGGLVQAGGSLRLSCAASGFTFRVNAMGWYIQAPGKERELVAAISSGGSTNYADSVKGRFTISRDNAKNTVYLQMNSLKPEDTAVYYCAKRFKYIYFWGQGTQVTVSS", "polyreactivity (PSR sort gate)": "high polyreactivity"}
{"sequence": "QVQLLESGGGLVQAGGSLRLSCAASGFTITRYAMGWYRQAPGKERELVAAITYRGGSTYYADSVKGRFTISRDNAKITVYLQMNSLKPEDTAVYYCAADALYYFSWYYYWGQGTQVTVSS", "polyreactivity (PSR sort gate)": "high polyreactivity"}
{"sequence": "QVQLLESGGGLVQAGGSLRLSCAASGLTFVRYDMGWDRQAPGKERELVAAISSSGGSTNYADSVKGRFTISRDNAKNTVYLQMNSLKPEDTAVYYCAADYTWRFLRFGYWGQGTQVTVSS", "polyreactivity (PSR sort gate)": "high polyreactivity"}
{"sequence": "QVQLLESGGGLVQAGGSLRLSCAASGNLFHVNAMGWYRQAPGKERELVASISRRGGSTNYADSVKGRFTISRANAKNTVYLQMNSLKPEDTAVYYCATRLTSAVGRYLYDFGYWGQGTQVTVSS", "polyreactivity (PSR sort gate)": "high polyreactivity"}
{"sequence": "QVQLLESGGGLVQAGGSLRLSCAASGRIFASYAMGWYRQAPGKARELVAAISTGGNTYYADSVKGRFTISRDNAKNTVYLQMNSLKPEDTAVYDCAALSGAHEHFVEYDYWGQGTQVTVSS", "polyreactivity (PSR sort gate)": "low polyreactivity"}
{"sequence": "QVQLLESGGGLVQAGGSLRLSCAASGRIFGSNAMGWYRPAPGKERELVAAITRGGSTNYADSVKGRFTISRDNAKNTVYLQMNSLKPEDTAVYYCAVRWYRKYNYWGQGTQVTVSS", "polyreactivity (PSR sort gate)": "high polyreactivity"}
{"sequence": "QVQLLESGGGLVQAGGSLRLSCAASGRIFGYYAMGWYRQAPGKERELVASISWSGGSTYYADSVKGRFSISRDNAKNTVYLQMNSLKPEDTAVYYCAAKRSFLSTIGNYDYWGQGTQVTVSS", "polyreactivity (PSR sort gate)": "high polyreactivity"}
{"sequence": "QVQLLESGGGLVQAGGSLRLSCAASGRIFQFYAMGWYRKAPGKERELVAANSVRGGSTYYAHSVKGRFTISRDNEKNTVYLQMNSLKPEDTAVYYCAASKWGGYYYWGQGTQVTVSS", "polyreactivity (PSR sort gate)": "high polyreactivity"}
{"sequence": "QVQLLESGGGLVQAGGSLRLSCAASGRIFSAYAMGWSRQAPGTERELVAAISWSGGSTYYADSVKGRFTISRDNAKNTVYLQMNSLKPEDTAVYYCAADYFYTSWYQHDYWGQGTQVTVSS", "polyreactivity (PSR sort gate)": "low polyreactivity"}
{"sequence": "QVQLLESGGGLVQAGGSLRLSCAASGRIFVTYAMGWYRQAPGKERELVAAITSRGGRTYYADSVKGRFTISRDNAKNTVYLQMNSLKPEATAVYYCAAYPGPGARYYYWGQGTQVTVSS", "polyreactivity (PSR sort gate)": "high polyreactivity"}
{"sequence": "QVQLLESGGGLVQAGGSLRLSCAASGRIFWNNAMGWYRQAPGKERELVAVISTRGGRTYYADSVKGRFTISRDNANNTVNLQMNSLKPEDTAVYYCAAEFLNKAVGGVTSIYDSWGQGTQVTVSS", "polyreactivity (PSR sort gate)": "low polyreactivity"}
{"sequence": "QVQLLESGGGLVQAGGSLRLSCAASGRTFRHNVMAWYRQAPGNERELVAAISYSRGSTHYADSVKGRFTISRDNAKNTVYFQMNSLKPEANAVYYCNRYSYDAHFLYPFRGHDYWGQGTQVTVTS", "polyreactivity (PSR sort gate)": "low polyreactivity"}
{"sequence": "QVQLLESGGGLVQAGGSLRLSCAASGRTFRINARGWYRQAPGKEREFVAAINYRGGSTYADSVKGRFTISRDNAKNTVYVQMNSLKPEDPAVYYCAAYATLWYYTGVHRGGFENWGQGSQVTVSS", "polyreactivity (PSR sort gate)": "high polyreactivity"}
